Assay results as given in US20220096655A1, “PLASMA POLYMER NANOPARTICLES CARRYING AGENTS” (THE HEART RESEARCH INSTITUTE LTD, priority 2019, published 2022).
“And” between values parts separate entries of the source, which are not always exact repeats. Equal entries are not always repeated.

B1: IL-10: carrier free recombinant rat IL-10 (R&D systems), anti-inflammatory cytokine (protein, UniProt P29456 19-178, looked up)
Interleukin-10: SKGHSIRGDNNCTHFPVSQTHMLRELRAAFSQVKTFFQKKDQLDNILLTDSLLQDFKGYLGCQALSEMIKFYLVEVMPQAENHGPEIKEHLNSLGEKLKTLWIQLRRCHRFLPCENKSKAVEQVKNDFNKLQDKGVYKAMNEFDIFINCIEAYVTLKMKN
B2: NP3+IL-10: recombinant rat IL-10 conjugated to 200 nm plasma polymer nanoparticles (nanoP3) (conjugate, UniProt P29456 19-178, looked up)
Interleukin-10: B1 Interleukin-10
modifications: conjugated to 200 nm plasma polymer nanoparticles
B3: IL-4: carrier free recombinant rat IL-4 (R&D systems), anti-inflammatory cytokine (protein, UniProt P20096 25-147, looked up)
Interleukin-4: CNDSPLREIINTLNQVTEKGTPCTEMFVPDVLTATRNTTENELICRASRVLRKFYFPRDVPPCLKNKSGVLGELRKLCRGVSGLNSLRSCTVNESTLTTLKDFLESLKSILRGKYLQSCTSMS
B4: NP3+IL-4: recombinant rat IL-4 conjugated to plasma polymer nanoparticles (nanoP3, 200 nm) (conjugate, UniProt P20096 25-147, looked up)
Interleukin-4: B3 Interleukin-4
modifications: conjugated to 200 nm plasma polymer nanoparticles

Experiments:
[1] = Interleukin surface binding to nanoP3 (fluorescence of Cy5 label in leftover washes); format: physicochemical; settings: ultra-pure water pH 6.5, room temperature; for maximum binding efficiency of nanoP3 to interleukin in solution: Cy5-tagged interleukin; for loading capacity, further increased loading: at lower binding efficiency
Description: Carrier free recombinant rat IL-4 and IL-10 (R&D systems, USA) were dissolved in phosphate buffered saline (PBS) at a stock concentration of 100 ng/μl. To establish binding kinetics, each interleukin was tagged with a Lightning-link Cy5 antibody label (Novus Biologicals, USA). For every 1×10^9 nanoP3 (200 nm diameter) in ultrapure water (Thermofisher, USA), either 1.42 μg of IL-4 or 1.32 μg of IL-10 was added. Additional water was added to reach a total reaction volume of 1 ml and left to incubate for a 1 h at room temperature. Binding kinetics were performed on a Clariostar monochromator microplate reader (BMG Labtech, Germany) using the leftover washes following 1 h incubations.
The binding efficiency of nanoP3 to IL-4 in solution was maximum at 99%, corresponding to a loading capacity of 0.5±0.01 μg/10^9 particles. […] The maximum binding efficiency of nanoP3 to IL-10 was 99.9%, representing a total mass loading capacity of 0.5±0.02 μg/10^9 particles. Further loading of IL-10 onto nanoP3 was observed up to 0.80±0.02 μg/10^9 particles corresponding to a binding efficiency of 40%. All experiments were performed in ultra-pure water (pH=6.5) at room temperature. The incubation time was 30 minutes.

[2] = tested on: rat carotid model of vessel injury; assay: Rat carotid injury and nanoP3 delivery model (neointima, endothelium, M2 macrophages); format: in vivo; settings: for repair of the damaged endothelium (immunostaining, von Willebrand factor): 14 days after injury; for vessel re-endothelialisation / healing (von Willebrand factor staining): 200 nm NP3, FIG. 8; for vascular occlusion (neointima formation percentage of cross-sectional lumen area): denuded injury roughly 60%
Description: (§1) Study approval was obtained from the Sydney Local Health District Animal Welfare Committee (protocol number 2017/006). Experiments were conducted in accordance with the Australian Code of Practice for the Care and Use of Animals for Scientific Purpose. Rats (Sprague Dawley, male, 7 weeks) were purchased from Laboratory Animal Service (NSW, Australia). Rats were given a single intramuscular injection of ketamine (75 mg/kg) and medetomidine (0.5 mg/kg) to induce anaesthesia. The common carotid artery was isolated and double ligations were spaced roughly 1 cm apart. A small incision at the distal end was made, through which microintraocular forceps (World Precision Instruments, USA) were inserted, expanded to their full width and rotated 360 degrees to injured the entire luminal surface area of the vessel. This was repeated 5 times before withdrawing the forceps, and inserting a 22G catheter into the same incision. Through the catheter, IL-4 or IL-10 bound nanoP3 solutions were injected at a concentration of 2×10^8 nanoP3 in a total volume of roughly 80 μl of RPMI media. The nanoP3 solutions were allowed to incubate for 2 minutes and then withdrawn completely from the vessel. The incision was sutured closed using a 9-0 nylon suture, and both ligations were undone to re-establish blood flow. The isolated vessel segments were then explanted 14 days later for pathological evaluation.
After 14 days in vivo, vessel explants were fixed in 4% PFA overnight and subjected to ethanol dehydrations prior to paraffin embedding. Embedded vessel segments were then sectioned in 5 μm thick slices in the longitudinal direction. M2 macrophage and luminal endothelium staining was conducted using anti-CD206 (Abcam, USA) and anti-VonWillebrand Factor (Sigma, USA) antibodies. Fluorescent imaging was conducted by using Alexa-fluor 594 secondary antibodies. Staining of neointima formation was conducted using hematoxylin & eosin (H&E) staining. Normalised hyperplasia was calculated as the total area of hyperplasia divided the area of the original vessel lumen.
Using a rat carotid model of vessel injury, the efficacy of NP3+IL-10, NP3+Sirolimus or NP3+Sulindac to treat cardiovascular pathology was determined in vivo. Carrier -free recombinant rat IL-10 (1.34 μg/10^9 nanoP3; R&D systems, USA), Sirolimus (2.50 μg/10^9 nanoP3; rapamycin, Sigma-Merck, USA), Sulindac (3.05 μg/10^9nanoP3; Sigma-Merck, USA), or a Cy7 fluorescent tag (5.03 μg/10^9 nanoP3; CF750 Antibody Label, Sigma-Merck, USA) were diluted in sterile water and conjugated to 2×10^9 nanoP3.
The rats were subjected to vessel injury as described in Example 3 except that through the catheter, IL-10, Sirolimus or Sulindac bound nanoP3 solutions were injected at a concentration of 2×10^8 nanoP3 (IL-10, 0.268 μg; Sirolimus, 0.5 μg; Sulindac 0.61 μg; Cy7, 1.01 μg), in a total volume of roughly 80 μl of RPMI media.

[3] = tested on: Raw 246.7 mouse macrophage cells; assay: M2 macrophage polarisation in vitro (SEM, confocal arginase-1 staining); format: cell-based; settings: 1×10^5 nanoP3/well, 24 hours; for expression of arginase-1 (ARG-1), confocal immunostaining: vs control and NP3 only; for M2 activation of macrophages (SEM spreading and surface roughness): vs untreated and NP3 only
Description: The inventors sought to investigate the effect of NP3+IL-4 on macrophage polarisation in vitro. Raw 246.7 mouse macrophage cells (ATCC, USA) were cultured at 5×10^3 cells/well in a 96 well plate. IL-4 bound nanoP3 was added into macrophage cultures at a concentration of 1×10^5 nanoP3/well. After 24 hours, macrophages were fixed in 4% paraformaldehyde prior to scanning electron microscopy (SEM) and confocal imaging. Confocal staining was performed using an Actin cytoskeletal stain (Abcam, USA) and an anti-arginase-1 antibody (Abcam, USA).
Raw 246.7 mouse macrophage cells (ATCC, USA) were cultured at 5×10^3 cells/well in a 96 well plate. IL-10 (1.34 μg/10^9 nanoP3) and Sulindac (3.05μg/10^9nanoP3) were bound to nanoP3 as described in Example 4.
NP3+IL-10 or NP3+Sulindac was added into macrophage cultures at a concentration of 1 x 10^5 nanoP3/well. After 24 hours, macrophages were fixed in 4% paraformaldehyde prior to scanning electron microscopy (SEM) and confocal imaging. Confocal staining was performed using an Actin cytoskeletal stain (Abcam, USA) and an anti-arginase-1 antibody (Abcam, USA).

[4] = tested on: rabbit model of iliac arterial injury; assay: Rabbit iliac injury and nanoP3 delivery model; format: in vivo; settings: 200 nm NP3, over seven days
Description: Study approval was obtained from the University of Sydney Animal Ethics Committee (AEC) protocol 2019-1653. Experiments were conducted in accordance with the Australian Code of Practice for the Care and Use of Animals for Scientific Purpose. An incision (˜1cm length) was made in the middle of the inguinal skin and the right femoral artery exposed after the blunt dissection of the muscle layers. The artery was ligated on the distal end and above the ligation, a small incision made to allow a 5F sheath (Abbott, TREK Coronary Dilatation Catheter, 3.25 mm) to be inserted. The sheath was held in place with sutures (3-0, silk). A 0.014 inch guide wire was inserted through the sheath, retrograde into the abdominal aorta. A 3.25 mm angioplasty balloon catheter was then inserted over the guide wire and advanced into the aorta. The location of NP3 delivery and the surrounding vasculature was determined by intravenous injection of contrast fluid ISOVUE 370 or OMNIPAQUE (75.5 g/100 ml), 25%-50% (v/v) contrast/saline prior to angiography.
Denudation of the iliac artery was performed by inflating the balloon at the bifurcation of the abdominal aorta to 3.1 mm diameter and withdrawn to the femoral artery slowly, 3 times (1 min per denudation). Through the main incision, the same balloon was re-inserted into the injured iliac to the bifurcation and inflated to 6-8 atm to occlude proximal blood flow. Immediately after blood flow has been occluded, a IL-10 nanoP3 solution (3×10^8 total 2 ml) was delivered through the sheath, inflating the artery, and allowed to incubate for 2 minutes before aspirating remaining solution back through the sheath. The sheath was removed, the femoral artery permanently ligated by 3-0 silk suture, followed by removal of the sheath. The exposed area was closed by 3-0 silk suture with individual stiches and double layer sutures.

[5] = Tracking of IL-4 retention in the isolated vessel (Cy5 tag), rat carotid injury model; format: in vivo; settings: for IL-4 retention in the vessel after restoration of blood flow: 2 minutes incubation in isolated carotid
Description: A) Procedural workflow of vessel injury: 1. Microintraocular forceps are inserted into ligated/isolated carotid rat segments. 2. Forceps are expanded and rotated 360° to mimic balloon injury overexpansion injury/denudation. 3. Forceps are removed, and through the same incision a small gauge catheter is inserted. 4. NP3+IL-4 solutions are delivered through the catheter and are allowed to incubate in the isolated vessel for 2 minutes. 5. The incision is sutured, and blood flow is restored.
as §1

Molecule | binding efficiency at further increased loading [1] | loading capacity at maximum binding efficiency [1] | maximum binding efficiency of nanoP3 to interleukin in solution [1] | loading capacity, further increased loading [1] | repair of the damaged endothelium (immunostaining, von Willebrand factor) [2] | expression of arginase-1 (ARG-1), confocal immunostaining [3] | M2 activation of macrophages (SEM spreading and surface roughness) [3] | vascular occlusion (neointima formation percentage of cross-sectional lumen area) ([2]; two weeks) | IL-4 retention in the vessel after restoration of blood flow [5] | also measured
B1 | 40% | 0.5±0.02 μg/10^9 particles | 99.9% and 100% | 0.80±0.02 μg/10^9 particles | absent |  |  |  |  | effect on vascular occlusion ([2]; two weeks): no significant effects
B2 |  |  |  |  | restore full endothelium integrity | significantly upregulated | causes M2 activation | ~20% |  | vessel re-endothelialisation / healing (von Willebrand factor staining) [2]: stimulate healing; vessel re-endothelialisation / healing (von Willebrand factor staining) ([2]; listed as NP3 delivered IL-10): stimulates vessel healing; vessel inflammation/macrophage polarisation (CD206 co-staining with CD68) ([2]; 200 nm NP3, FIG. 9): promoting M2 macrophage polarisation; neointimal hyperplasia (H&E staining) ([2]; 200 nm NP3, compared to freely delivered agents, FIG. 7): inhibition of neointimal hyperplasia; presence of M2 macrophages in treated carotid segments (immunostaining, CD206) ([2]; 14 days, compared to denuded, NP3+IL-4 and free IL-10): significant increase; incidence of thrombosis (CD31 staining) [4]: significantly reduced; neointimal hyperplasia / occlusion (H&E staining) ([4]; vs untreated controls): reduced hyperplasia; vessel inflammation, infiltration of pro-inflammatory macrophages (CD68 staining) ([4]; vs untreated controls): reduces the infiltration of pro-inflammatory macrophages; neointimal hyperplasia / occlusion (H&E staining) ([4]; vs untreated controls, listed as IL-10+NP3): reduced hyperplasia; neointimal hyperplasia / occlusion (H&E staining) ([4]; vs untreated controls, listed as NP3+IL10): reduced occlusion
B3 | 53.1% | 0.5±0.01 μg/10^9 particles | 99% and 100% | 1.1±0.02 μg/10^9 particles |  |  |  |  | immediately washed away | 
B4 |  |  |  |  | restore full endothelium integrity | significantly upregulated | increases spreading (top row) and surface roughness | approximately 35% | significantly retained | M2 activation of macrophages (SEM spreading and surface roughness) ([3]; listed as nanoP3-IL4): causes M2 activation; persistence of IL-4 at substantial levels in the vessel [5]: ≥ 5 days
